The supplement of paper PMC12636428

The sequences below were run on Saccharomyces cerevisiae (assay: transcriptional activation domain activity (GFP:mCherry ratio, weighted mean of sorted bins, harmonized to initial dataset scale) (arbitrary fluorescence ratio units); higher = stronger transcriptional activation). Settings: beta-estradiol 1 µM; induction time 4 h.
How it was run: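 Sorting into 8 bins by GFP:mCherry ratio followed a 4-hour hold at 30 °C after cultures were diluted 1:5 into SC with 1 uM beta-estradiol. The yeast diploids carried a GFP reporter and had barcoded protein tiles, fused to an estradiol-inducible synthetic transcription factor, integrated at URA3. Barcodes were then sequenced, and tiles with under 50 reads were removed. Activation activity is the read-weighted mean of bin median fluorescence, averaged across barcodes and linearly mapped onto the initial dataset scale.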

Sequence	transcriptional activation domain activity
LLGVLTLLLLYCNVVLITYHVPTWSRPLDIAFIHAPVRLFFILPLSLLFPYSL	56100
LLHAAGVHYGYGLLLLKCDILLRLLMFISFLLSSQFLLSVISPLLFFPSFVLM	54700
LLHILCFLMNLILTTLTLFVLLRDHLQLSCNVYTGLFFSCHTVSVAFSGVILL	66200
LLHLAISQLQAYLDRFRTRLNAVHALHLKRLILFLTALDQFTCARVAGMKVRS	33700
LLHPDKREPIDEDIWTVIPRGIRCEMMTFDLHIWLRRLVECLYKCLLENLVPT	46600
LLICSVVALVTCLAFLTNLTSMVPNFVLACLPLTAFLIFGTHSDLLRVWCFWW	28700
LLIFVLFYYNCMKILYGIFGFIILGVLGLFGYYISSMLLWLYNVPFDYISFFF	68500
LLIFYFLFSCICIHFQQHLGLPLYLFNQDWYYAWQALAKQYFGLLLITMTKWW	53400
LLILLLAFKKTSKEDPYEAIRLMSLAIGDQYAQGPDRFRLSCQWAVLARMISH	38400
LLILSLTVPFLHGLLRPHTHYVHLLVVVFLTFSPFFVILTISYEGLFYVIFCI	57900
LLIPTISFFFCATNCYVLTKDSQLDRGYIYWVLRCSAVHLMLSFFTLLFSLCF	48100
LLIQPLIQGFCYLMQFWISFFSSLFCFVTGDIPILLGILIPFYCLFFFHFFLF	58700
LLISDSQLGSYLLIGFVLENFICLFGLLVHSYLSLTRMDLGSFFFFAQITNRM	40700
LLIYGIVGFINLIKGEYLIVITGCKKIGSLVHNAEIYRATSFQILPVTHGLSS	55300
LLKAVQEDEGDDGVIVAYLDTLVPLLEDYLTSGPLGQFTLRLRLLLSFQVYAS	53800
LLKGLTLRNPAILKLEEDEDEAALLTQYAVKCSEVDKFLLTYVILKLKLIKGK	33200
LLKKCLKSSFGKSNEVTTYCLEFFGNVYRWSEMYWSSTWPVLLLVHALKSKQK	52700

Sequence	transcriptional activation domain activity
LLKLKMATKTNDIALYEHFIDMSLRFLPFWNMIVSYYLCLLLLFNTTHIIFIL	90500
LLKNNILKWMCLVFRFVTRRVRFTYLTLPLATRCVGQGLVYIIRIIQDGHSYI	43100
LLKPNSCHFLLRNDIVFYKWTYYVAVIINVALRFAWTLNLANLSLNPQLLIFI	56100
LLKYAEWLIKPEQNNGSWVADVLWPVLNLDLQWISSHWNESSWDLWWPPIWGG	32400
LLLALLIADCGHLVSMRGLGVQVYWNIWEWNVFTAASVLLVYFYITLRICFLF	53300
LLLCGEICVACIVLYIHIVFFFGFFFFFLLGMIGLCLTFSNQLILFVYFLYFL	43200
LLLESEPLFRCTLPTIRDNISAYLSFLQIPNGNATEELPQWMPYILLIFEILL	54400
LLLFIHSLIHGTMLLFWRWPMLSILQVPMHPFLLLVCFNLFSQSVPPVLVSAA	59500
LLLFLFLRICFGLHVLATSAWFFYPSFLYGLSLITLPLFYGGVDPSVPWLFDG	48900
LLLFNDEYTHIWSTPSFALKWIYLFARYFPLLFQSTSYYLLTHILSRPPISWS	61800
LLLHVLIALRFWRFFGYSIGMVCGILLELVGYCGKVQLSHNRDNKDGYIIGLT	50800
LLLHYKHEEFVGHEETDFVVMGFTKLLLCCISSLKSFKKPLNAGPLIERIFRK	84700
LLLLIFAVFLRACDILSSQWLIWWTDGIVLGASHDLNFWKGWYMFIVWISLFF	54800
LLLLIWMVTRLVRTYTTIMFRCLGPPDHVAKMHRLLLGLSTCLQLSVYVLITS	47300
LLLLLDRFIDRNHLLDHIKIGTSDLLNLPGQRSIYISRLCRAICILGYNVNND	30400
LLLLLLYFFLFLFLFLFLCSQVLCLGQVDLVDLEKPFVFQSFFEIFPTLLFLP	35100
LLLLLVYSNVALLVYHAPTYTRPFDMALIHAPLRFFMILPLSLLFPYSLFITL	57700
